According to US20060292657A1, “Phex substrates and methods using same” (priority 2003, published 2006):
Marks after values point to notes of the source that are not given here.

Assays:
Assay in all cases: Kinetic parameters for hydrolysis of internally quenched fluorogenic peptides by secPHEX
Format in all cases: biochemical, human
[1] = substrate: Nc1ccccc1C(=O)NCC(=O)N[C@@H](Cc1ccccc1)C(=O)N[C@@H](CO)C(=O)N[C@@H](CCC(=O)O)C(=O)N[C@@H](Cc1ccc(O)cc1)C(=O)N[C@@H](CCCCNc1ccc([N+](=O)[O-])cc1[N+](=O)[O-])C(=O)O; settings: other: 37° C., 10 mM Bis-Tris buffer pH 5.5, 150 mM NaCl, [S]<<Km
Method: (§1) The human recombinant secPHEX was obtained following the procedure previously described (17, WO 00/50580). Purified secPHEX concentration was determined using the Bradford method (DC protein assay kit; Bio-Rad, Mississauga, ON, Canada). Membrane-bound recombinant human PHEX was expressed in LLC-PK1 cells (17, (WO 00/50580)) and membranes were prepared essentially as described by Guo et al. (34). Briefly, transfected cells resuspended in lysis buffer (150 mM NaCl, 20 mM Tris.HCl, pH 7.6) were disrupted by sonication. Cell debris were removed by centrifugation at 300 g for 15 min at 4 °C. Membranes were collected by centrifugation at 30,000 g for 50 min and solubilized for 2h with 1% n-dodecyl-β-D-maltoside in lysis buffer. Insoluble material was pelleted by centrifugation at 10,000 g for 15 min and protein concentrations of the supernatant determined using the Bradford method described above. PHEX amounts were evaluated by immunoblotting as described previously (17). NEP expression and purification were performed as described previously (36).
(§2) The hydrolysis of the IQFPs, at 37° C., in 10 mM Bit-Tris buffer pH 5.5 (0.35 to 1.0 ml final volume) containing 150 mM NaCl, was continuously followed measuring the fluorescence at γem=420 nm and γex=320 nm in a Hitachi F-2000™ spectrofluorometer. The cuvefte containing the buffer and the substrate was placed in a thermostatically controlled cell compartment for 5 min before the addition of the enzyme and the increase in fluorescence with time was continuously recorded for 5-10 min. The enzyme concentration for initial rate determination was chosen at a level intended to hydrolyze less than 5% of the substrate present. The slope was converted into micromoles of substrate hydrolyzed per min based on a calibration curve obtained from complete hydrolysis of each peptide. The inner-filter effect was corrected using an empirical equation as previously described (43). The kinetic parameters Km and kcat were calculated by the non-linear regression data analysis Grafit program (42). The kcat/Km values were calculated as the ratio of these two determined parameters. The apparent second order rate constant kcat/Km (*kIt/Km) was determined under pseudo first-order conditions, where [S]<<Km. These determinations were performed in two different substrate concentrations and the errors were less than 5% for any obtained value.
(§3) To determine the position of cleavage in peptides of the IQFPs combinatorial libraries, the products resulting from hydrolysis by secPHEX were submitted to N-terminal amino acid sequencing in a PPSQ-23protein sequencer (Shimadzu Tokyo, Japan). The scissile bonds in the IQFPs secPHEX substrates derived from PTHrP107-139, FGF-23and MEPE were determined by amino acid sequencing and by MALDI-TOF™ mass spectrometry (TofSpec-E™, Micromass, Manchester, U.K.) after isolation of the fragments resulting from the hydrolysis by secPHEX by analytical HPLC.
(§4) The assays were performed at 37° C., in 10 mM Bis-Tris buffer pH 5.5, containing 150 mM NaCl. Measurements were made as described under the heading “Experimental Procedures” above. Cleavage sites are indicated as arrows (↓). The standard deviations of the kinetic constants were less than 5%.
(§5) The assays were performed at 37° C., in 10 mM Bis-Tris buffer pH 5.5, containing 150 mM NaCl. Measurements were made as described under the heading “Experimental Procedures” above. Cleavage sites are indicated by arrows (↓). The standard deviations of the kinetic constants were less than 5%.
(§6) The assays were. performed at 37° C., in 10 mM Bis-Tris buffer pH 5.5, containing 150 mM NaCl. Measurements were made as described under the heading “Experimental Procedures” above. Cleavage sites are indicated by arrows (↓). The standard deviations of the kinetic constants were less than 5%.
(§7) The assays were performed at 37° C., in 10 mM Bis-Tris buffer pH 5.5, containing 150 mM NaCl. Measurements were made as described under “Experimental Procedures”. […]

[2] = substrate: C[C@H](NC(=O)[C@H](CO)NC(=O)[C@H](CCC(N)=O)NC(=O)[C@@H](NC(=O)[C@H](Cc1c[nH]cn1)NC(=O)[C@H](CCCNC(=N)N)NC(=O)[C@H](CCCNC(=N)N)NC(=O)c1ccccc1N)[C@@H](C)O)C(=O)N[C@@H](CCC(=O)O)C(=O)N[C@@H](CC(=O)O)C(=O)N[C@@H](CC(=O)O)C(=O)N[C@@H](CO)C(=O)N[C@@H](CCC(=O)O)C(=O)N[C@@H](CCCNC(=N)N)C(=O)N[C@@H](CCC(N)=O)C(=O)NCCNc1ccc([N+](=O)[O-])cc1[N+](=O)[O-]; settings: other: 37° C., 10 mM Bis-Tris buffer pH 5.5, 150 mM NaCl
Method: as §1, §2, §3, §4, §5, §6, §7

[3] = substrate: CC[C@H](C)[C@H](NC(=O)[C@H](CC(=O)O)NC(=O)[C@H](CC(N)=O)NC(=O)[C@H](CO)NC(=O)CNC(=O)c1ccccc1N)C(=O)N[C@@H](CCSC)C(=O)NCC(=O)N[C@@H](CCC(N)=O)C(=O)NCCNc1ccc([N+](=O)[O-])cc1[N+](=O)[O-]; settings: other: 37° C., 10 mM Bis-Tris buffer pH 5.5, 150 mM NaCl
Method: as §1, §2, §3, §4, §5, §6, §7

[4] = substrate: C[C@H](NC(=O)[C@H](CO)NC(=O)c1ccccc1N)C(=O)N[C@@H](CCC(=O)O)C(=O)N[C@@H](CC(=O)O)C(=O)N[C@@H](CC(N)=O)C(=O)N[C@@H](CO)C(=O)N1CCC[C@H]1C(=O)N[C@@H](CCC(N)=O)C(=O)NCCNc1ccc([N+](=O)[O-])cc1[N+](=O)[O-]; settings: other: 37° C., 10 mM Bis-Tris buffer pH 5.5, 150 mM NaCl
Method: as §1, §2, §3, §4, §5, §6, §7

[5] = substrate: CC(C)C[C@H](NC(=O)[C@H](Cc1c[nH]c2ccccc12)NC(=O)[C@H](C)NC(=O)c1ccccc1N)C(=O)N[C@@H](CC(=O)O)C(=O)N[C@@H](CO)C(=O)NCC(=O)N[C@H](C(=O)N[C@@H](CCC(N)=O)C(=O)NCCNc1ccc([N+](=O)[O-])cc1[N+](=O)[O-])C(C)C; settings: other: 37° C., 10 mM Bis-Tris buffer pH 5.5, 150 mM NaCl
Method: as §1, §2, §3, §4, §5, §6, §7

B1: human recombinant secPHEX (Homo sapiens) (protein)
chain: SLQAKQEYCLKPECIEAAAAILSKVNLSVDPCDNFFRFACDGWISNNPIPEDMPSYGVYPWLRHNVDLKLKELLEKSISRRRDTEAIQKAKILYSSCMNEKAIEKADAKPLLHILRHSPFRWPVLESNIGPEGVWSERKFSLLQTLATFRGQYSNSVFIRLYVSPDDKASNEHILKLDQATLSLAVREDYLDNSTEAKSYRDALYKFMVDTAVLLGANSSRAEHDMKSVLRLEIKIAEIMIPHENRTSEAMYNKMNISELSAMIPQFDWLGYIKKVIDTRLYPHLKDISPSENVVVRVPQYFKDLFRILGSERKKTIANYLVWRMVYSRIPNLSRRFQYRWLEFSRVIQGTTTLLPQWDKCVNFIESALPYVVGKMFVDVYFQEDKKEMMEELVEGVRWAFIDMLEKENEWMDAGTKRKAKEKARAVLAKVGYPEFIMNDTHVNEDLKAIKFSEADYFGNVLQTRKYLAQSDFFWLRKAVPKTEWFTNPTTVNAFYSASTNQIRFPAGELQKPFFWGTEYPRSLSYGAIGVIVGHEFTHGFDNNGRKYDKNGNLDPWWSTESEEKFKEKTKCMINQYSNYYWKKAGLNVKGKRTLGENIADNGGLREAFRAYRKWINDRRQGLEEPLLPGITFTNNQLFFLSYAHVRCNSYRPEAAREQVQIGAHSPPQFRVNGAISNFEEFQKAFNCPPNSTMNRGMDSCRLW
notes: pure soluble form of PHEX (secPHEX); made in house
B1 was tested, and the kcat/Km [1] was 9.0* mM^−1 s^−1, the Km [2] was 1.7 µM and the kcat [2] was 0.15 s⁻¹. For the same protein, the kcat/Km [2] was 88200 M⁻¹ s⁻¹, the Km [3] was 13.0 µM and the kcat [3] was 0.01 s⁻¹. It also gave a kcat/Km [3] of 800 M⁻¹ s⁻¹, a Km [4] of 22.0 µM and a kcat [4] of 0.3 s⁻¹. The kcat/Km [4] was 13600 M⁻¹ s⁻¹, the Km [5] was 1.5 µM and the kcat [5] was 0.04 s⁻¹. It also gave a kcat/Km [5] of 26700 M⁻¹ s⁻¹.
